Kd data for 2 molecules are collected here from article PMC3392929 (The Journal of Cell Biology, 2012).

Bounds are passed on as bounds.

Test [1] concerns the target Purified β-actin (Cytoskeleton) (UniProt P60709 1-375). The test is described as follows: SPR. In general terms: Surface plasmon resonance follows binding to a sensor surface in real time, without labels.
Test [2] shares this target. The test is described as follows: SPR. This is another data set of the same source.

B1: GST-tagged full-length Myo1c (natural protein)
chain: MALQVELIPTGEIIRVVHPHRPCKLALGSDGVRVTMESALTARDRVGVQDFVLLENFTSEAAFIENLRRRFRENLIYTYIGPVLVSVNPYRDLQIYSRQHMERYRGVSFYEVPPHLFAVADTVYRALRTERRDQAVMISGESGAGKTEATKRLLQFYAETCPAPERGGAVRDRLLQSNPVLEAFGNAKTLRNDNSSRFGKYMDVQFDFKGAPVGGHILSYLLEKSRVVHQNHGERNFHIFYQLLEGGEEETLRRLGLERNPQSYLYLVKGQCAKVSSINDKSDWKVVRKALTVIDFTEDEVEDLLSIVASVLHLGNTHFAADEESNAQVTTENQLKYLTRLLGVEGSTLREALTHRKIIAKGEELLSPLNLEQAAYARDALAKAVYSRTFTWLVAKINRSLASKDAESPSWRSTTVLGLLDIYGFEVFQHNSFEQFCINYCNEKLQQLFIELTLKSEQEEYEAEGIAWEPVQYFNNKIICDLVEEKFKGIISILDEECLRPGEATDLTFLEKLEDTIKQHPHFLTHKLADQRTRKSLDRGEFRLLHYAGEVTYNVTGFLDKNNDLLFRNLKETMCSSENPILGQCFDRSELSDKKRPETVATQFKMSLLELVEILKSKEPAYVRCIKPNDSKQPGRFDEVLIRHQVKYLGLMENLRVRRAGFAYRRKYEAFLQRYKSLCPETWPTWTGRPQDGVTVLVRHLGYKPEEYKMGRTKIFIRFPKTLFATEDALEIRRQSLATKIQATWRGFHCRQKFLRVKRSAICIQSWWRGTLGRRKAAKRKWAAQTIRRLIQGFILRHAPRCPENAFFVDHVRTSFLLNLRRQLPRNILDTSWPTPPPALREASELLRELCRKNMVWKYCRSISPEWKQQLQQKAVASEIFKGKKDNYPQSVPRLFISTRLGADEINPRVLQALGSEPIQYAVPVVKYDRKGYKPRSRQLLLTPNAVVIVEDAKVKQRIEYTNLTGISVSSLSDSLFVLHVQREDNKQKGDVVLQSDHVIETLTKTALSADRVNNININQGSITFAGGPGRDGIIDFTPGSELLITKAKNGHLAVVAPRLNSR
For the molecule B1, the Kd – broadly, the constant that tells how readily two partners part at equilibrium – in test [1] is at most 2000 nM.

B2: GST-tagged Myo1c tail domain (domain or fragment)
chain: KDNYPQSVPRLFISTRLGADEINPRVLQALGSEPIQYAVPVVKYDRKGYKPRSRQLLLTPNAVVIVEDAKVKQRIEYTNLTGISVSSLSDSLFVLHVQREDNKQKGDVVLQSDHVIETLTKTALSADRVNNININQGSITFAGGPGRDGIIDFTPGSELLITKAKNGHLAVVAPRLNSR
The molecule B2 yielded an equilibrium dissociation constant (Kd) in test [2] of at most 2000 nM.
